Data published in article PMC9468158, “Transmembrane helices mediate the formation of a stable ternary complex of b5R, cyt b5, and SCD1” (Communications Biology, 2022).
Substitutions are numbered along the chain they refer to. Names and notes keep the numbering of the source. Values belong to the binder of their own block, whether it stands above or below them.

Assays:
[1] = biological target: T1, SCD1, individual purified protein (mouse, UniProt P13516 1-355); test: BLI; Octet, 30 °C, 1000 rpm; soluble cyt b5 coupled to AR2G (amine reactive) biosensors; analytes soluble b5R or SCD1 at 5, 2.5 and 1.25 µM; FPLC buffer (20 mM HEPES pH 7.5, 150 mM NaCl, 1 mM DDM) plus 0.1% BSA; KD from kon and koff of 1-exponential fits; conditions: both partners purified
T1 construct: stearoyl-CoA desaturase-1 (SCD1), mouse, UniProt P13516; surmised: ENLYFQ of the TEV site is left at the C-terminus; source: HEK 293S (BacMam), purified (GFP nanobody resin, released by TEV protease, SEC in 1 mM DDM); not shown: GFP, C-terminal, cleaved
T1 sequence (looked up): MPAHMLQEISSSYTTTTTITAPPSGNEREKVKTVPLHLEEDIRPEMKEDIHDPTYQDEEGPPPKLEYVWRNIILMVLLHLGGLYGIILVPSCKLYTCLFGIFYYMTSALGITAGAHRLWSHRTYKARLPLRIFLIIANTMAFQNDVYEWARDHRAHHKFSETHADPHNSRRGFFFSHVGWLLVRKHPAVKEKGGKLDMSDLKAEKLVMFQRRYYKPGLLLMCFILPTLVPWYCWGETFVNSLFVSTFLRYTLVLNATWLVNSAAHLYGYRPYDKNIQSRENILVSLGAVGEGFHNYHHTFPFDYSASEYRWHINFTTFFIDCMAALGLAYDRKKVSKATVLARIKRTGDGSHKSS

soluble b5R (24-301) = biological target: T2, soluble b5R (24-301) (mouse, UniProt Q9DCN2 24-301); test: as above; conditions: both partners purified
T2 construct: source: E. coli BL21(DE3) (pET vector), purified (procedures similar to those for the full-length proteins)
T2 sequence (looked up): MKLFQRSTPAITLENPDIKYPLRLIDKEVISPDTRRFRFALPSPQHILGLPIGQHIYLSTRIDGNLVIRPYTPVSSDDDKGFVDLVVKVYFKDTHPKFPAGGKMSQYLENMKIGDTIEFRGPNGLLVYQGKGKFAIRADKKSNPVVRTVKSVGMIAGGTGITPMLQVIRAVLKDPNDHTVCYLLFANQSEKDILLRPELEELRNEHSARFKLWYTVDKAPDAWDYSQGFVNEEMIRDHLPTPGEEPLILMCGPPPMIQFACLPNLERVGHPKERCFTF

[2] = biological target: T3, SCD1, released from the linker-cleaved SCD1-cyt b5-b5R fusions (mouse, UniProt P13516 1-355); test: SEC; ternary fusion SCD1-cyt b5-b5R purified, linkers cleaved by TEV protease, Superdex 200 10/300 GL in 20 mM HEPES pH 7.5, 150 mM NaCl, 1 mM DDM; three proteins in the sample; conditions: both partners purified
T3 construct: stearoyl-CoA desaturase-1 (SCD1), mouse, UniProt P13516; stands for the SCD1 chain of the ternary fusion of the full-length proteins and of the sample with soluble cyt b5 and b5R; surmised: linker residues are left after TEV cleavage; not shown: GFP, N-terminal, cleaved
T3 sequence (looked up): T1 sequence (looked up)

[3] = biological target: T4, full-length b5R, released from the linker-cleaved cyt b5-b5R fusion (mouse, UniProt Q9DCN2 1-301); test: cell-based or functional assay
T4 sequence (looked up): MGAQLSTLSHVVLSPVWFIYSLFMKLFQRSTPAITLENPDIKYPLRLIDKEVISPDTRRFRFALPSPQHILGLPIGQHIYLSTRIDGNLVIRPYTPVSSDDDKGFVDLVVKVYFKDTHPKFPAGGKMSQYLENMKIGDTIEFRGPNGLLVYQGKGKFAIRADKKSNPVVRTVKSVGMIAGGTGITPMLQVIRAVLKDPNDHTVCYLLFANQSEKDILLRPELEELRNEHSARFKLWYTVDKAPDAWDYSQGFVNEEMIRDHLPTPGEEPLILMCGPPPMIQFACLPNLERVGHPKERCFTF

[4] = biological target: T5, SCD1, released from the linker-cleaved SCD1-cyt b5 fusions (mouse, UniProt P13516 1-355); test: SEC; binary fusion protein purified, linker cleaved by TEV protease, Superdex 200 10/300 GL in 20 mM HEPES pH 7.5, 150 mM NaCl, 1 mM DDM; elution compared with the tethered fusion; conditions: both partners purified
T5 construct: stearoyl-CoA desaturase-1 (SCD1), mouse, UniProt P13516; stands for the SCD1 chain of the fusion with full-length cyt b5 (wild type and TM mutants) and of the fusion with the soluble domain of cyt b5; the GFP tag stood at the C-terminus of the fusion; surmised: ENLYFQ is left at the C-terminus after cleavage
T5 sequence (looked up): T1 sequence (looked up)

[5] = biological target: T5, SCD1, released from the linker-cleaved …; test: SEC; TM mutants in the linker-cleavable fusions, purified and cleaved by TEV protease; SRE-10C SEC-300 (Sepax) on HPLC, FPLC buffer, 0.75 mL/min; heme absorbance (413 nm by the results, 423 nm by the methods) gives the ratio of heterodimer to monomeric cyt b5; conditions: both partners purified
[6] = biological target: T4, full-length b5R, released from the …; test: as above; conditions: both partners purified

B1: soluble cyt b5 (4-89), wild type (domain or fragment, mouse, UniProt P56395 4-89, looked up)
chain: QSDKDVKYYTLEEIQKHKDSKSTWVILHHKVYDLTKFLEEHPGGEEVLREQAGGDATENFEDVGHSTDARELSKTYIIGELHPDDR
notes: cytochrome b5, mouse, UniProt P56395, soluble domain, residues 4-89; coupled by amines to AR2G biosensors; also called cyt b5 (WT); source: E. coli BL21(DE3) (pET vector), purified (procedures similar to those for the full-length proteins)
Kd [1]: 4.42 µM
Kd (soluble b5R (24-301)): 2.71 µM

B2: soluble cyt b5 (4-89) E49A (domain or fragment, mouse, UniProt P56395 4-89, looked up)
chain: B1 chain with E46A
notes: cytochrome b5, mouse, UniProt P56395, soluble domain, residues 4-89; coupled by amines to AR2G biosensors; also called cyt b5 (E49A); source: E. coli BL21(DE3) (pET vector), purified (procedures similar to those for the full-length proteins)
Kd [1]: 8.23 µM
Kd (soluble b5R (24-301)): 8.45 µM

B5: full-length cyt b5, released from the linker-cleaved cyt b5-b5R fusion (natural protein, mouse, UniProt P56395 1-134, looked up)
chain: MAGQSDKDVKYYTLEEIQKHKDSKSTWVILHHKVYDLTKFLEEHPGGEEVLREQAGGDATENFEDVGHSTDARELSKTYIIGELHPDDRSKIAKPSDTLITTVESNSSWWTNWVIPAISALAVALMYRLYMAED
difference of the electron transfer rate between no NaCl and 150 mM NaCl, stable binary complex [3]: 1.04 fold
rate of electron transfer from b5R to cyt b5 (k1, reduction of cyt b5) in the stable binary complex against the mixture of the individual proteins, 150 mM NaCl [3]: ~34 fold

B6: full-length cyt b5, released from the linker-cleaved SCD1-cyt b5 fusion (natural protein, mouse, UniProt P56395 1-134, looked up)
chain: B5 chain
notes: cytochrome b5, mouse, UniProt P56395; surmised: G at the N-terminus and ENLYFQ at the C-terminus are left after TEV cleavage; not shown: GFP, C-terminal, cleaved
binding result [4]: binds

B8: cyt b5 M126A, released from the linker-cleaved SCD1-cyt b5-TEV chimera (natural protein, mouse, UniProt P56395 1-134, looked up)
chain: B5 chain with M126A
notes: cytochrome b5, mouse, UniProt P56395; as m11 with the mutation; source: HEK 293S (BacMam), purified as a fusion with SCD1, cleaved by TEV protease; not shown: GFP, C-terminal, cleaved
percent dissociation of the complex [5]: ~50%

B9: cyt b5 Y127A, released from the linker-cleaved cyt b5-b5R-TEV chimera (natural protein, mouse, UniProt P56395 1-134, looked up)
chain: B5 chain with Y127A
notes: cytochrome b5, mouse, UniProt P56395; as m6 with the mutation; source: High Five cells (Bac-to-Bac), purified as a fusion with b5R, cleaved by TEV protease
binding result [6]: binds

B13: cyt b5 S119A, released from the linker-cleaved cyt b5-b5R-TEV chimera (natural protein, mouse, UniProt P56395 1-134, looked up)
chain: B5 chain with S119A
notes: as for B9
binding result [6]: binds

B16: cyt b5 A122W, released from the linker-cleaved cyt b5-b5R-TEV chimera (natural protein, mouse, UniProt P56395 1-134, looked up)
chain: B5 chain with A122W
notes: as for B9
binding result [6]: binds

B17: cyt b5 L121W, released from the linker-cleaved SCD1-cyt b5-TEV chimera (natural protein, mouse, UniProt P56395 1-134, looked up)
chain: B5 chain with L121W
notes: as for B8
percent dissociation of the complex [5]: ~40%

B21: cyt b5 A122W, released from the linker-cleaved SCD1-cyt b5-TEV chimera (natural protein, mouse, UniProt P56395 1-134, looked up)
chain: B5 chain with A122W
notes: as for B8
percent dissociation of the complex [5]: ~40%

More lines, now with the values ahead:

Kd [1]: 11.2 µM
Kd (soluble b5R (24-301)): 9.63 µM
B3: soluble cyt b5 (4-89) E43A (domain or fragment, mouse, UniProt P56395 4-89, looked up)
chain: B1 chain with E40A
notes: cytochrome b5, mouse, UniProt P56395, soluble domain, residues 4-89; coupled by amines to AR2G biosensors; also called cyt b5 (E43A); source: E. coli BL21(DE3) (pET vector), purified (procedures similar to those for the full-length proteins)

binding result [2]: binds
B4: full-length b5R, released from the linker-cleaved SCD1-cyt b5-b5R fusion (enzyme, mouse, UniProt Q9DCN2 1-301, looked up)
chain: T4 sequence (looked up)
notes: no extra residue after the C-terminus of b5R; surmised: a G is left at the N-terminus after TEV cleavage

binding result [2]: binds
B7: full-length cyt b5, released from the linker-cleaved SCD1-cyt b5-b5R fusion (natural protein, mouse, UniProt P56395 1-134, looked up)
chain: B5 chain
notes: cytochrome b5, mouse, UniProt P56395; surmised: linker residues are left after TEV cleavage

percent dissociation of the complex [5]: ~40%
B10: cyt b5 L125W, released from the linker-cleaved SCD1-cyt b5-TEV chimera (natural protein, mouse, UniProt P56395 1-134, looked up)
chain: B5 chain with L125W
notes: as for B8

binding result [6]: binds
B11: cyt b5 V123W, released from the linker-cleaved cyt b5-b5R-TEV chimera (natural protein, mouse, UniProt P56395 1-134, looked up)
chain: B5 chain with V123W
notes: as for B9

percent dissociation of the complex [6]: ~40%
B12: cyt b5 R128A, released from the linker-cleaved cyt b5-b5R-TEV chimera (natural protein, mouse, UniProt P56395 1-134, looked up)
chain: B5 chain with R128A
notes: as for B9

binding result [6]: binds
B14: cyt b5 L121W, released from the linker-cleaved cyt b5-b5R-TEV chimera (natural protein, mouse, UniProt P56395 1-134, looked up)
chain: B5 chain with L121W
notes: as for B9

binding result [6]: binds
B15: cyt b5 M126A, released from the linker-cleaved cyt b5-b5R-TEV chimera (natural protein, mouse, UniProt P56395 1-134, looked up)
chain: B5 chain with M126A
notes: as for B9

percent dissociation of the complex [5]: ~10%
B18: cyt b5 Y127A, released from the linker-cleaved SCD1-cyt b5-TEV chimera (natural protein, mouse, UniProt P56395 1-134, looked up)
chain: B5 chain with Y127A
notes: as for B8

percent dissociation of the complex [5]: ~10%
B19: cyt b5 R128A, released from the linker-cleaved SCD1-cyt b5-TEV chimera (natural protein, mouse, UniProt P56395 1-134, looked up)
chain: B5 chain with R128A
notes: as for B8

percent dissociation of the complex [6]: ~40%
B20: cyt b5 A124W, released from the linker-cleaved cyt b5-b5R-TEV chimera (natural protein, mouse, UniProt P56395 1-134, looked up)
chain: B5 chain with A124W
notes: as for B9
